Data set [1] deals with the molecule itself. Description: AUC; sedimentation equilibrium, 20 °C, 20 mM NaH2PO4 pH 7.0, 150 mM NaCl; OBD 10-60 μM at 22,000 rpm, OD 10-100 μM at 13,000 rpm; single-species model.
Data set [2] deals with the molecule itself. Put plainly: SAXS; free RepB in solution at 20, 40 and 83 μM RepB6 (12.1, 5.8 and 2.9 mg/mL); 10 mM TRIS pH 8.5, 5 mM EDTA, 1.0 M KCl.

B1: RepB OD (oligomerisation domain, residues 127 to 210) (domain or fragment, UniProt P13921 127-210, looked up)
chain: DIDRYVTLDVEEKTELFNVVVSLIRAYTLQNIFDLYDFIDENGETYGLTINLVNEVIAGKTGFMKLLFDGAYQRSKRGTKNEER
notes: RepB of plasmid pMV158 (Streptococcus agalactiae), oligomerisation domain, residues 127 to 210; theoretical mass of the hexamer 58,300 Da; also called OD-only construct; OD hexamer; source: Escherichia coli M15, purified (Ni-NTA agarose), His-tag removed with TAGZyme; not shown: His6, N-terminal, cleaved
With B1, the “stoichiometry N” value in data set [1] was found to be 6.

B2: RepB, rolling-circle replication initiator protein of plasmid pMV158 (hexamer) (natural protein, UniProt P13921 1-210, looked up)
chain: MAKEKARYFTFLLYPESIPSDWELKLETLGVPMAISPLHDKDKSSIKGQKYKKAHYHVLYIAKNPVTADSVRKKIKLLLGEKSLAMVQVVLNVENMYLYLTHESKDAIAKKKHVYDKADIKLINNFDIDRYVTLDVEEKTELFNVVVSLIRAYTLQNIFDLYDFIDENGETYGLTINLVNEVIAGKTGFMKLLFDGAYQRSKRGTKNEER
notes: RepB, replication initiator protein encoded by the promiscuous plasmid pMV158, originally isolated from Streptococcus agalactiae; 24 kDa polypeptide; OBD (N-terminal) and OD (C-terminal) domains; the OD construct ends at residue 210; The final model of 4U87 comprises residues 3-204 of three protomers in the asymmetric unit; also called RepB6; RepB hexamer
For B2, the “stoichiometry N” value in data set [2] amounted to 6.

Usually stoichiometry N stands for the number of molecules, sites or subunits per partner or assembly.

These data come from article PMC4753449, “Conformational plasticity of RepB, the replication initiator protein of promiscuous streptococcal plasmid pMV158” (Scientific Reports, 2016).
